Data reported in patent publication US20090227489A1, “STAT3 Agonists and Antagonists and Therapeutic Uses Thereof” (Johns Hopkins University, priority 2000, published 2009).

How the values were obtained:
[1] = tested on: B16 cells; test: Cell cycle analysis by propidium iodide staining and FACS; format: cell-based, murine; details: transfected B16 cells, from 24 hours post transfection
Protocol: Cell cycle analysis. Cell cycle analysis based on DNA content was performed. Cells were harvested, washed twice in PBS and resuspended in 70% ethanol on ice for at least 30 min. After centrifugation, cells were resuspended in 1 ml of propidium iodide staining solution (50 μg propidium iodide, 1 mg RNase A and 1 mg glucose per ml PBS) and incubated at room temperature for 30 min. The cells were analyzed by FACS using ModFit LT cell cycle analysis software (Verity Software, Topsham, Me.). Cells transfected with vectors encoding EGFP were fixed in 1 ml of 0.5% formaldehyde on ice for 10 min. before adding 70% ethanol.
This G0/G1 phase arrest was observed as early as 24 hourspost transfection. At 48 hours post transfection with Stat3β vector, Annexin V-PE staining followed by FACS analysis to detect apoptotic activity was performed with transfected B16 cells. A high level of apoptosis in Stat3β transfected cells (75%) relative to empty vector transfected cells (25%) was observed, as shown in FIG. 2C. Increased levels of apoptosis as a result of Stat3β transfection was confirmed by confocal laser scanning microscope analysis using rhodamine-labelled TUNEL assay.

[2] = tested on: TRAIL; test: RNase protection assay with multi-template probes for regulators of apoptosis; format: cell-based, murine; details: B16 cells, thirty hours after transfection
Protocol: FIG. 4. Stat3β overexpression in B16 cells results in induction of TRAIL mRNA expression. Ten μg of total cellular RNAs isolated from B16 (lanes 1 and 4), and B16 transfected with either pIRES-EGFP (lanes 2 and 5) or pIRES-Stat3β (lanes 3 and 6) were hybridized with each multiple probe before digestion with RNase. Separation of protected fragments was achieved by gel electrophoresis. Fragment assignment was determined by migration relative to internal standards. Induction of TRAIL RNA was confirmed by two additional RPA analyses.
RNA isolation and RNase protection assay. Total RNA was isolated from 5.0×10^6 cells by TRIzol reagent (Gibco BRL, Grand Island, N.Y.). RNase protection assays (RPA) were carried out using the PharMingen Riboquant mAPO-3 (TRAIL, FasL, CD95, and other death receptor associated genes) and mAPO-2 (Bcl-2 family members) multi-probe templates according to the manufacturer's protocol (PharMingen, San Diego, Calif.). Briefly, the multi-probe template was synthesized by in vitro transcription with incorporation of [^32P]-α UTP and purified on a G50 Sephadex column (5-Prime to 3-Prime, Boulder, Colo.). Specific activity was quantitated in a Beckman LS 6500 scintillation counter (Beckman, Schaumburg, Ill.). […] Protected RNA fragments were separated on a 5% polyacrylamide denaturing gel and quantified with Image Quant software (Molecular Dynamics, Sunnyvale, Calif.). […]

[3] = tested on: B16 tumors; test: Stat3β gene therapy of established B16 tumors in mice; format: in vivo; details: for tumor growth: ten to fifteen percent of tumor cells transfected in vivo
Protocol: Mice. Six- to eight-week old female C57/B6 mice were obtained from the National Cancer Institute (Frederick, Md.). Cohorts of 3-5 mice per group were used for these experiments. To induce tumor, mice were shaved on the left flank and injected s.c. with 5×10^5 of B16 cells in 100 μl of PBS. Gene therapy with Stat3β of established B16 tumors was described previously [Niu, 1999 #72].
Antibody staining of iNOS in B16 tumors. 3 μm paraffin sections were deparaffinized and endogenous peroxidase was blocked with 3% aqueous hydrogen peroxide. To minimize non-specific binding, the sections were incubated for 20 min in normal goat serum in PBS, followed by overnight incubation at 4° C. with rabbit anti-iNOS polyclonal antibody (Transduction Laboratories). After washing with PBS, sections were incubated for 2 min with diaminobenzidine tetrahydrochloride, rinsed with tap water and counterstained with modified Mayer's hematoxylin. Sections were dehydrated, cleared and mounted. Peritoneal macrophages and neutrophils.
Tissue sections from control vector-treated and Stat3β-treated tumors were stained with H&E and anti-iNOS antibodies.

[4] = tested on: peritoneal macrophages and lymphocytes; test: Mice injected with transfected B16 cells: macrophage NO production and lymphocyte IFN-γ ELISPOT; format: in vivo; details: transfected B16 cells injected into mice
Protocol: FIG. 9A-B. Expression of Stat3β in tumor cells leads to activation of macrophages and T lymphocytes in vivo. Mice were injected with B16 cells (2×10^6/mouse) transfected with either GFP or Stat3β expression vectors. Five days later, peritoneal macrophages and lymphocytes were tested for NO production and IFN-γ production, respectively. A. NO production by peritoneal macrophages. B. IFN-γ ELISPOT of lymphocytes.
In addition to direct tumoricidal effect shown herein with production of NO by macrophages, innate immunity critically impacts the development of adaptive immune responses. […] Furthermore, a four-fold increase in IFN-γ production by lymphocytes derived from mice injected with Stat3β-transfected B16 cells was also detected (FIG. 9B).

[5] = tested on: VEGF promoter; test: VEGF promoter luciferase reporter in B16 and SCK tumor cells; format: cell-based; details: B16 and SCK murine tumor cells, co-transfection
Excerpt: FIG. 12A-B. Blocking Stat3 signaling in tumor cells inhibits VEGF promoter activity. Both B16 (A) and SCK (B) murine tumor cells were transfected with constructs containing the luciferase cDNA in the absence (pluc) or presence of the VEGF promoter (VEGF).
(§1) A plasmid construct containing the luciferase cDNA in the absence of the VEGF promoter was also transfected into 3T3 fibroblasts. Both of B16 and SCK tumor cells harbor constitutively activated Stat3. In the absence of Stat3β, VEGF promoter activity was readily detectable in both tumor cells as indicated by the high expression levels of luciferase protein. […] The inhibitory effect of Stat3β on the transcriptional activity of the VEGF promoter was also observed in the tumor cells transfected with Stat3 anti-sense oligonucleotides (FIG. 12A-B). It was also shown that blocking Stat3 signaling in tumor cells inhibits the expression of the endogeneous VEGF gene. B16 tumor cells were transiently transfected with Stat3β and the expression of endogeneous VEGF gene was determined at the RNA and protein levels.

[6] = tested on: VEGF; test: Expression of the endogeneous VEGF gene in B16 tumor cells (Western blot); format: cell-based, murine; details: ASO at 100 nM, 200 nM, or 300 nM
Protocol: FIG. 13. Inhibition of Stat3 signaling in tumor cells reduces the expression of the endogeneous VEGF gene. B16 tumor cells were transfected with either: A. Stat3β; or B. Stat3 anti-sense oligonucleotides (ASO) at 100 nM, 200 nM, or 300 nM.
as §1

B1: Stat3β: dominant-negative Stat3 variant, truncated form lacking the transactivation domain; delivered by the pIRES-Stat3β expression vector (protein)
chain: AQWNQLQQLDTRYLEQLHQLYSDSFPMELRQFLAPWIESQDWAYAASKESHATLVFHNLLGEIDQQYSRFLQESNVLYQHNLRRIKQFLQSRYLEKPMEIARIVARCLWEESRLLQTAATAAQQGGQANHPTAAVVTEKQQMLEQHLQDVRKRVQDLEQKMKVVENLQDDFDFNYKTLKSQGDMQDLNGNNQSVTRQKMQQLEQMLTALDQMRRSIVSELAGLLSAMEYVQKTLTDEELADWKRRQQIACIGGPPNICLDRLENWITSLAESQLQTRQQIKKLEELQQKVSYKGDPIVQHRPMLEERIVELFRNLMKSAFVVERQPCMPMHPDRPLVIKTGVQFTTKVRLLVKFPELNYQLKIKVCIDKDSGDVAALRGSRKFNILGTNTKVMNMEESNNGSLSAEFKHLTLREQRCGNGGRANCDASLIVTEELHLITFETEVYHQGLKIDLETHSLPVVVISNICQMPNAWASILWYNMLTNNPKNVNFFTKPPIGTWDQVAEVLSWQFSSTTKRGLSIEQLTTLAEKLLGPGVNYSGCQITWAKFCKENMAGKGFSFWVWLDNIIDLVKKYILALWNEGYIMGFISKERERAILSTKPPGTFLLRFSESSKEGGVTFTWVEKDISGKTQIQSVEPYTKQQLNNMSFAEIIMGYKIMDATNILVSPLVYLYPDIPKEEAFGKYCRPESQEHPEADPGAAPYLKTKFICVTFIDAVWK
- cell cycle distribution [1]: progressive accumulation in G0/G1 phase
- TRAIL RNA expression [2]: induction of TRAIL RNA expression
- apoptosis of tumor cells in vivo ([3]; B16 tumors): massive apoptosis of B16 tumor cells
- tumor growth ([3]; B16 tumors): complete regression of tumors
- tumor growth ([3]; B16 tumors, listed as Stat30): inhibition of tumor growth and tumor regression
- infiltration of inflammatory cells (neutrophils, macrophages, T cells) ([3]; H&E staining, vs control vector-treated tumors): dramatic increase in number of inflammatory cells
- iNOS expression in tumor-infiltrating macrophages ([3]; anti-iNOS antibody staining): induction of iNOS gene expression in the tumor-infiltrating macrophages
- increase in IFN-γ production by lymphocytes ([4]; ELISPOT): four-fold
- NO production by peritoneal macrophages ([4]; five days later): clear induction of NO production
- transcriptional activity of the VEGF promoter (luciferase) [5]: greatly inhibited
- expression of the endogeneous VEGF gene [6]: downregulates expression of the endogeneous VEGF gene
